Patent publication US20250011363A1, “OPTIMIZED SHORTENED PEPTIDE THAT BINDS TO ACETYLCHOLINE RECEPTOR, AND USE THEREOF” (SKINMED CO., LTD., priority 2021, published 2025)

biological target: acetylcholine receptor (Homo sapiens, UniProt P02708); assay: SPR binding affinity (RU) of optimized 5mer/6mer/7mer peptides, Examples 6-7; conditions: 6mer-1 Top sequence; SPR; peptides tested at 10 μM
Procedure, shortened: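 SPR, peptides at 10 μM; read-out = response units (RU). Sequences drawn from top- or bottom-frequency amino acid combinations, 5mer/6mer-1/6mer-2 libraries.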

Chain of acetylcholine receptor (P02708 21-457): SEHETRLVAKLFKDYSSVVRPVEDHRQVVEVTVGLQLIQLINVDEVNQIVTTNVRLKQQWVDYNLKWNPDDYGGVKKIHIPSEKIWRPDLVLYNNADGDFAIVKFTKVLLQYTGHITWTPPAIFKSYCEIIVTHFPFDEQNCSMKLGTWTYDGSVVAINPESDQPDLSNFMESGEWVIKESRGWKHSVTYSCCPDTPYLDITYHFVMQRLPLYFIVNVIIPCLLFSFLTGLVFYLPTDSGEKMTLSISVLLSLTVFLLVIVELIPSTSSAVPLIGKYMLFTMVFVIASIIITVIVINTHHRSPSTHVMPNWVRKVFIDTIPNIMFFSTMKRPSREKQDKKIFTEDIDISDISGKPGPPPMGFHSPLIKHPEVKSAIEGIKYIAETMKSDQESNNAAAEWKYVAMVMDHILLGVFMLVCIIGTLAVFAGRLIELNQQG

| Substance | Binding affinity [Ru] |
| --- | --- |
| 6mer-1-206 (RRLQTR) | 121 |
| 6mer-1-355 (RKVFYR) | 148 |
| 6mer-1-279 (RRLRYR) | 145 |
| 6mer-1-212 (RRRICR) | 148 |
| 6mer-1-334 (RRRRLR) | 154 |
| 6mer-1-266 (KKGRLK) | 144 |
| 6mer-1-269 (RKRRQR) | 142 |
| 6mer-1-316 (RKQIRK) | 145 |
| 6mer-1-364 (RKRQSK) | 124 |

same assay, conditions: 6mer-2 Top sequence; SPR; peptides tested at 10 μM

| Substance | Binding affinity [Ru] |
| --- | --- |
| 6mer-2-183 (RLQLRR) | 154 |
| 6mer-2-174 (KLLRKR) | 142 |
| 6mer-2-197 (RGQYRR) | 126 |
| 6mer-2-28 (KVLSRK) | 142 |
| 6mer-2-141 (KWYQKK) | 154 |
| 6mer-2-111 (KLIRRK) | 123 |
| 6mer-2-130 (RGVCRR) | 122 |
| 6mer-2-198 (KWYYRK) | 139 |
| 6mer-2-19 (RSFSKK) | 135 |
| 6mer-2-109 (RRVYRK) | 144 |
| 6mer-2-185 (RGYQKR) | 137 |

same assay, conditions: SPR, Resonance Units; 5mer Bottom sequence (bottom combinations); peptides tested at 10 μM

| Substance | Binding affinity [Ru] |
| --- | --- |
| 5mer-714 (RPCAK) | 32 |
| 5mer-930 (RAWVR) | 20 |
| 5mer-917 (KCAPR) | 11 |
| 5mer-923 (KCWMK) | 19 |
| 5mer-914 (RPTMR) | 26 |
| 5mer-625 (KMCDR) | 33 |
| 5mer-604 (RKEGK) | 13 |
| 5mer-805 (RPTNR) | 27 |
| 5mer-990 (KEEPK) | 12 |
| 5mer-1048 (KYDNK) | 12 |
| 5mer-934 (KMMMR) | 17 |
| 5mer-633 (RAAKR) | 20 |
| 5mer-949 (KMKMK) | 26 |
| 5mer-717 (KCKFR) | 20 |
| 5mer-947 (KDWIR) | 27 |
| 5mer-957 (RDCER) | 30 |
| 5mer-993 (KEKFR) | 27 |
| 5mer-649 (RYSFK) | 20 |
| 5mer-641 (RITWK) | 22 |

same assay, conditions: SPR, Resonance Units; peptides tested at 10 μM; 6mer-1 Bottom sequence

| Substance | Binding affinity [Ru] |
| --- | --- |
| 6mer-1-1015 (KREEWR) | 26 |
| 6mer-1-1048 (RRCMMK) | 36 |
| 6mer-1-1000 (RKMSHR) | 28 |
| 6mer-1-1091 (KKDDGK) | 32 |
| 6mer-1-1058 (KRFPWR) | 21 |
| 6mer-1-1057 (KRKPVR) | 43 |
| 6mer-1-1116 (KRHPFR) | 35 |
| 6mer-1-1187 (RRHAHK) | 26 |
| 6mer-1-1122 (RRTMGR) | 33 |
| 6mer-1-1076 (RKKEPK) | 43 |
| 6mer-1-1085 (KREAMK) | 33 |
| 6mer-1-1027 (KKPWHK) | 22 |

same assay, conditions: SPR, Resonance Units; peptides tested at 10 μM; 6mer-1 Bottom sequence (Table 11)

| Substance | Binding affinity [Ru] |
| --- | --- |
| 6mer-1-661 (RKPKWR) | 14 |
| 6mer-1-715 (KRMMVK) | 18 |
| 6mer-1-787 (KKESIK) | 16 |
| 6mer-1-706 (KRMKDR) | 29 |
| 6mer-1-771 (KKMDIK) | 17 |
| 6mer-1-718 (RKFKAR) | 23 |
| 6mer-1-629 (RKMDAK) | 11 |
| 6mer-1-652 (RRPEVK) | 26 |
| 6mer-1-636 (RKYKDR) | 27 |
| 6mer-1-688 (RKDEVR) | 33 |
| 6mer-1-678 (KRMAAK) | 25 |
| 6mer-1-758 (KKYHHR) | 33 |
| 6mer-1-614 (KKEEER) | 12 |

same assay, conditions: SPR, Resonance Units; peptides tested at 10 μM; 6mer-2 Bottom sequence

| Substance | Binding affinity [Ru] |
| --- | --- |
| 6mer-2-842 (KPKMRR) | 22 |
| 6mer-2-979 (KKAFKK) | 22 |
| 6mer-2-667 (KHDMRR) | 25 |
| 6mer-2-812 (KPPEKR) | 33 |
| 6mer-2-818 (KTPERK) | 13 |
| 6mer-2-883 (RTNEKR) | 22 |
| 6mer-2-878 (KETVRR) | 24 |
| 6mer-2-835 (RHCGKR) | 20 |
| 6mer-2-769 (RCPFRK) | 13 |
| 6mer-2-942 (KTDKRK) | 22 |
| 6mer-2-632 (KYDIKR) | 12 |
| 6mer-2-941 (RDEDKR) | 33 |
| 6mer-2-695 (KCWWRR) | 28 |
| 6mer-2-945 (KKCERK) | 42 |
| 6mer-2-910 (RHEHRR) | 21 |
| 6mer-2-670 (RKWHKR) | 33 |

same assay, conditions: SPR, Resonance Units; peptides tested at 10 μM; 6mer-2 Top sequence

| Substance | Binding affinity [Ru] |
| --- | --- |
| 6mer-2-528 (KGFRKK) | 151 |
| 6mer-2-432 (KVVRKR) | 148 |
| 6mer-2-457 (RRVYKR) | 146 |
| 6mer-2-572 (KSQRRK) | 148 |
| 6mer-2-406 (KGIYRR) | 139 |

same assay, conditions: SPR, Resonance Units; peptides tested at 10 μM; 6mer-2 Top sequence (Table 12)

| Substance | Binding affinity [Ru] |
| --- | --- |
| 6mer-2-276 (RLVCRK) | 153 |
| 6mer-2-344 (KGIRRK) | 148 |
| 6mer-2-235 (KLVRKK) | 136 |
| 6mer-2-253 (KLRSRR) | 145 |
| 6mer-2-242 (KSQRRR) | 135 |
| 6mer-2-377 (RRYCRR) | 142 |
| 6mer-2-278 (RQIQKK) | 135 |
| 6mer-2-400 (RQIRRR) | 154 |
| 6mer-2-232 (KQFTRK) | 135 |

same assay, conditions: SPR, peptides at 10 μM; 6mer-2 Bottom sequence

| Substance | Binding affinity [Ru] |
| --- | --- |
| 6mer-2-1116 (KMEVKK) | 31 |
| 6mer-2-1058 (RMPWKK) | 24 |

same assay, conditions: SPR, peptides tested at 10 μM; 5mer Top sequence

| Substance | Binding affinity [Ru] |
| --- | --- |
| 5mer-370 (KWRRK) | 67 |
| 5mer-151 (RVFTK) | 66 |
| 5mer-83 (KGFSR) | 64 |
| 5mer-15 (KGVCK) | 75 |
| 5mer-454 (RQVLR) | 77 |
| 5mer-181 (RSLLK) | 72 |
| 5mer-393 (KSLQR) | 75 |
| 5mer-195 (KVVSR) | 82 |
| 5mer-362 (KQRLK) | 62 |
| 5mer-366 (RQLQK) | 52 |
| 5mer-131 (KLRRR) | 72 |
| 5mer-372 (RSVCR) | 54 |
| 5mer-48 (RVYLR) | 62 |

same assay, conditions: SPR, peptides tested at 10 μM; 5mer Top sequence (top combinations)

| Substance | Binding affinity [Ru] |
| --- | --- |
| 5mer-234 (RQYCR) | 62 |
| 5mer-587 (RVITR) | 66 |
| 5mer-522 (RLVYR) | 78 |
| 5mer-278 (RWQRR) | 66 |
| 5mer-533 (RLVYK) | 84 |
| 5mer-518 (RVYYR) | 87 |
| 5mer-574 (KGFTR) | 59 |
| 5mer-219 (KQYTR) | 55 |

same assay, conditions: SPR, peptides tested at 10 μM; 6mer-1 Bottom sequence (Table 11)

| Substance | Binding affinity [Ru] |
| --- | --- |
| 6mer-1-990 (RRFTER) | 40 |
| 6mer-1-803 (RKMKHK) | 31 |
| 6mer-1-973 (RRDHVK) | 25 |
| 6mer-1-861 (KRINIR) | 21 |
| 6mer-1-800 (RREHIR) | 15 |
| 6mer-1-936 (RKETDR) | 36 |
| 6mer-1-814 (KKCNAK) | 15 |
| 6mer-1-848 (RKTMFK) | 19 |
| 6mer-1-979 (RRYWEK) | 42 |

same assay, conditions: SPR, peptides tested at 10 μM; 6mer-1 Top sequence

| Substance | Binding affinity [Ru] |
| --- | --- |
| 6mer-1-445 (KRVRLR) | 145 |
| 6mer-1-490 (KKLFRR) | 133 |
| 6mer-1-438 (RRGFQK) | 142 |
| 6mer-1-409 (RRWISR) | 144 |
| 6mer-1-579 (KRSVRK) | 148 |
| 6mer-1-518 (KRWVLK) | 153 |
| 6mer-1-442 (RKLQYK) | 131 |
| 6mer-1-595 (KKSLCK) | 121 |

same assay, conditions: SPR, peptides tested at 10 μM; 6mer-1 Top sequence (top combinations)

| Substance | Binding affinity [Ru] |
| --- | --- |
| 6mer-1-88 (KRWICK) | 121 |
| 6mer-1-120 (RRRYSR) | 124 |
| 6mer-1-51 (RRVLYK) | 127 |
| 6mer-1-164 (KRGQYK) | 145 |
| 6mer-1-80 (KRVQQR) | 133 |
| 6mer-1-146 (KRGRRR) | 139 |
| 6mer-1-58 (RKSVTR) | 126 |

same assay, conditions: SPR; XRRGVRR-7mer and RRGVRRX-7mer

| Substance | Binding affinity, values relative to the RRGVRR sequence |
| --- | --- |
| 3648 (MRRGVRR) [compound 3648] | 124 |

same assay, conditions: SPR; peptides tested at 10 μM; 5mer Bottom sequence

| Substance | Binding affinity [Ru] |
| --- | --- |
| 5mer-863 (REANR) | 16 |
| 5mer-839 (RHHDK) | 26 |
| 5mer-851 (KMCWK) | 19 |
| 5mer-1185 (KPTGR) | 30 |
| 5mer-881 (RNDAK) | 31 |
| 5mer-896 (RYHWR) | 27 |
| 5mer-860 (RCHAK) | 31 |
| 5mer-841 (KNEMR) | 22 |
| 5mer-813 (RAHVR) | 21 |
| 5mer-1151 (KTNAR) | 26 |
